Measurements as given in US20240425837A1 (Novo Nordisk, published 2024).

Target: human plasma-derived coagulation Factor X (FX) (human) (UniProt P00742)
Test: cell-based or functional assay

human plasma-derived coagulation Factor X (FX) (human), sequence (P00742 41-179, chain 1 of 2): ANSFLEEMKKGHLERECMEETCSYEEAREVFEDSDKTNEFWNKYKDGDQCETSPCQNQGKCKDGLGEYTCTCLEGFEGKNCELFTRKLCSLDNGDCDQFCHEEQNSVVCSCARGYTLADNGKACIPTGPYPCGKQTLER
human plasma-derived coagulation Factor X (FX) (human), sequence (P00742 183-488, chain 2 of 2): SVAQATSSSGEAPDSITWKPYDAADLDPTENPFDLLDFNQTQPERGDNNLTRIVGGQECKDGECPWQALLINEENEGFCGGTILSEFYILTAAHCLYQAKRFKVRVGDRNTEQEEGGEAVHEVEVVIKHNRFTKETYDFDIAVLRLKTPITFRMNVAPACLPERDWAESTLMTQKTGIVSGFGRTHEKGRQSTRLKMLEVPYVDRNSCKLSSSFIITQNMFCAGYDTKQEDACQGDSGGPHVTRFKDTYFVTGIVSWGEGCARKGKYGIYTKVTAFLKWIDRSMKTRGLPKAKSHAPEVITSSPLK

Substance “Emicizumab sequence identical analogue (SIA) (bispecific antibody)” has a KM of FX activation by 0.1 nM FIXa with phospholipid vesicles, antibody at 300 nM of 0.0535 µM.
